# Earlier results, collected in paper PMC4739856.
# Several values for one entry are separate records, joined by “and”; a condition that tells them apart may be missing. Equal entries are not always repeated. Where two headings read alike, the source gives them in different places.
# Legend:
# His119 [1] = target: T1, His119 (UniProt position 145, PYVPVHFDASV); experiment: NMR; conditions: apo (ligand-free) RNase A
# His12 [2] = target: T2, His12 (UniProt position 38, KFERQHMDSST); experiment: NMR; conditions: apo (ligand-free) RNase A
# His119 [3] = target: T1, His119
# His12 [4] = target: T2, His12
substance,measurement,setting,value
"Ribonuclease A (RNase A, pancreatic ribonuclease) (Bos taurus)",pKa,His119 [1],6.03 and 6.34
same,pKa,His12 [2],5.87 and 6.18
same,pKa,His119 [3]; apo (ligand-free) RNase A,6.2
same,pKa,His119 [3]; complex with 3'-CMP,7.4
same,pKa,His12 [4]; apo (ligand-free) RNase A,5.8
same,pKa,His12 [4]; complex with 3'-CMP,8.0
